{"source": "patent US5516515A", "about": "“Separation of alpha interferon receptor proteins and antibodies therefor” (priority 1990, dated 1996)", "molecules": {"B1": {"name": "IFN gamma: Human IFN gamma produced in human peripheral blood cultures containing lymphocytes stimulated with phytohemagglutinin, purified by affinity chromatography (protein, UniProt P01579 24-161, looked up)", "Interferon gamma": "QDPYVKEAENLKKYFNAGHSDVADNGTLFLGILKNWKEESDRKIMQSQIVSFYFKLFKNFKDDQSIQKSVETIKEDMNVKFFNSNKKKRDDFEKLTNYSVTDLNVQRKAIHELIQVMAELSPAAKTGKRKRSQMLFRG"}}, "key": {"[1]": {"test_system": "human HEp-2 cells challenged with vesticular stomatitis virus (Indiana Strain)", "experiment": "cytopathic effect (CPE) assay of interferon biological (antiviral) activity", "format": "cell-based", "conditions": "NIH reference units", "procedure": "Ultrapure natural interferon alpha was prepared by incubating human peripheral blood cultures with Sendai virus. The culture supernatant was purified over an anti-interferon alpha column (NK-2 sepharose). […] The biological activity of interferons alpha, beta and gamma were determined by the cytopathic effect (CPE) assay on human HEp-2 cells challenged with vesticular stomatitis virus (Indiana Strain). All titers were calibrated against the NIH reference standards for alpha (#Ga23-902-503) and gamma (Gg 23-901-530) interferons. All titers are expressed as NIH reference units."}, "[2]": {"molecular_target": "T1, Daudi cell receptor sites (Homo sapiens, UniProt P17181+P48551)", "T1 construct": "endogenous in cells; host or cells: Daudi (human lymphoblastoid) cells", "T1 sequence (P48551 27-515)": "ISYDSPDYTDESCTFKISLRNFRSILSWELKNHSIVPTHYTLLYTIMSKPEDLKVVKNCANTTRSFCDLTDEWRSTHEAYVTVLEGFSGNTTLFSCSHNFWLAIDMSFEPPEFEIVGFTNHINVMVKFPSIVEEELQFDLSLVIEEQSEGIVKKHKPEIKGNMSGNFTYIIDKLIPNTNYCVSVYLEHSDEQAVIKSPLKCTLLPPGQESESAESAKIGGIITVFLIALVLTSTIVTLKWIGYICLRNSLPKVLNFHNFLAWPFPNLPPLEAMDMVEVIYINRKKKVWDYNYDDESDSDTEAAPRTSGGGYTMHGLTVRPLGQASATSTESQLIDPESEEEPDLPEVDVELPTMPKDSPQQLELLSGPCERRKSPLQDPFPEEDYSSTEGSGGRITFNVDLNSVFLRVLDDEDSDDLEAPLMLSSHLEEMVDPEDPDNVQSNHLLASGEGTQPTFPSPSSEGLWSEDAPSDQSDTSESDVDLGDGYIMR", "T1 sequence (P17181 28-557)": "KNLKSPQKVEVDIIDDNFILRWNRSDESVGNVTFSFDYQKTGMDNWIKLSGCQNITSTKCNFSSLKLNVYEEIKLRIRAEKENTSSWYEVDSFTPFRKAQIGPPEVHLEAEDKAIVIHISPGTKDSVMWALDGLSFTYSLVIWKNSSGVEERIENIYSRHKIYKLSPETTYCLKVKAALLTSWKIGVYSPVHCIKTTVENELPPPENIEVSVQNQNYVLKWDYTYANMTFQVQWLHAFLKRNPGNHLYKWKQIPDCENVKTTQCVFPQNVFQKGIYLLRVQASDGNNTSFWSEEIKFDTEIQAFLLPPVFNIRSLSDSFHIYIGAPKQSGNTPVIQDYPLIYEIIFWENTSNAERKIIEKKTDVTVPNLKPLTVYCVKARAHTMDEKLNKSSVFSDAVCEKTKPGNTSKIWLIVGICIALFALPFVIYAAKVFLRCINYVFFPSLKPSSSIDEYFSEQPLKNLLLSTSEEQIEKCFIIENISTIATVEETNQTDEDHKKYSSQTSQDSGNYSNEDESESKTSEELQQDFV", "experiment": "Competition experiments: displacement of 125I-IFN-alpha-2 from Daudi cells", "format": "binding", "conditions": "100 fold excess of unlabeled IFN"}}}
{"molecule": "B1", "values": [{"measurement": "specific activity", "setting": "[1]", "value": "2×10^7 U/rag of protein"}, {"measurement": "reduction in the binding of 125I-IFN-alpha2 for Daudi cells", "setting": "[2]", "value": "does not compete"}]}
